T1: HspB5^WT (wild-type human HspB5, αB‐crystallin) (human, UniProt P02511 1-175, Alexa Fluor 647 (NHS ester) label in TCCD and in the condensate partitioning experiment; unlabelled in the other assays)
T1 construct: Small heat shock protein HspB5 (αB-crystallin), human, wild type, full-length isoform; Vector pET3a or pET24a; source: E. coli BL21(DE3), purified
T1 sequence (looked up): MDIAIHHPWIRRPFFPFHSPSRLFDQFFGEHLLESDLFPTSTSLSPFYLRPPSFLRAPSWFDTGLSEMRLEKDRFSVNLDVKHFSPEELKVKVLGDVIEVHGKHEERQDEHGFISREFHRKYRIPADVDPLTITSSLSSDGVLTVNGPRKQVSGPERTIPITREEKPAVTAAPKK

B1: TDP‐43 low‐complexity domain (TDP‐43^LCD), amino acids 267–414 of TDP‐43 (domain or fragment, UniProt Q13148 267-414, looked up)
chain: NRQLERSGRFGGNPGGFGNQGGFGNSRGGGAGLGNNQGSNMGGGMNFGAFSINPAMMAAAQAALQSSWGMMGMLASQQNQSGPSGNNQNQGNMQREPNQAFGSGNNSYSGSNSGAAIGWGSASNAGSGSGFNGGFGSSMDSKSSGWGM
modifications: Cy5 (mono NHS ester) label in TCCD and, at 1% of the protein, in FRAP; unlabelled in the other assays
notes: source: E. coli BL21(DE3), purified from inclusion bodies (HisTrap in 8 M urea), buffer exchanged into 20 mM MES pH 6.0

What was measured:
[1] = molecular target: B1; test: two-color coincidence detection (TCCD), confocal single-molecule fluorescence; fluorescently labelled TDP-43^LCD and labelled sHsp, diluted to 200 nM in 20 mM MES pH 6.0, 25°C, both in solution; peaks found in both channels within 10 ms counted as coincident (hetero-oligomers); conditions: both partners purified
[2] = molecular target: T1, HspB5^WT (wild-type human HspB5, …); test: as above; conditions: both partners purified

Binder	binding result [1]	binding result [2]
HspB5^ACD (core α‐crystallin domain of HspB5, residues 68–162) (domain or fragment, human, UniProt P02511 68-162, looked up, Alexa Fluor 647 (NHS ester) label in TCCD and in the condensate partitioning experiment, Small heat shock protein HspB5 (αB-crystallin), α-crystallin domain, residues 68-162; pET28 vector, gift of A. Laganowsky (Laganowsky et al., 2010); also called core domain of HspB5; source: E. coli BL21(DE3), purified) MRLEKDRFSVNLDVKHFSPEELKVKVLGDVIEVHGKHEERQDEHGFISREFHRKYRIPADVDPLTITSSLSSDGVLTVNGPRKQVSGPERTIPIT	binds	–
B1	–	binds

— publication PMC13140710, “Small heat shock proteins HspB1 and HspB5 differentially alter the condensation and aggregation of the TDP‐43 low‐complexity domain” (Protein Science : A Publication of the Protein Society, 2026)
